The text below walks through data of patent US20260242478A1 (published 2026).

Where no end group is shown, it is not given here.

The target of test [1] is Anti-CD28 Fab (SEQ ID NOs: 696, 697). Kind of test: phage binding ELISA; biotinylated anti-CD28 Fab on neutravidin plate, clonal phage supernatant, anti-M13 HRP detection. In general terms: In an ELISA, binding on a coated surface is turned into a signal by an enzyme label.
Target sequence in this assay (VH, as listed by the source, chain 1 of 2): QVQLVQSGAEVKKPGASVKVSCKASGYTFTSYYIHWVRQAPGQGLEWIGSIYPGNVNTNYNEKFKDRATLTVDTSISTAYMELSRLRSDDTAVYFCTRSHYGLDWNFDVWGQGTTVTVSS
Target sequence in this assay (VL, as listed by the source, chain 2 of 2): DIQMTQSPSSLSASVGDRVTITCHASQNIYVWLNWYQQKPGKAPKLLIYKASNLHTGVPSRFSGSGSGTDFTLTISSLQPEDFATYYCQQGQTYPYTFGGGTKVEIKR
For test [2] the target is unchanged. The test is described as follows: phage binding ELISA on anti-CD28 Fab; wells first incubated with CD28 antigen as competitor.
Target sequence in this assay (VH, as listed by the source, chain 1 of 2): as the sequence (VH, as listed by the source, chain 1 of 2) above
Target sequence in this assay (VL, as listed by the source, chain 2 of 2): as the sequence (VL, as listed by the source, chain 2 of 2) above
Protocol: (§1) After panning, phage infected bacteria were plated out and colonies picked into 96 well blocks. Clonal phage was then amplified and separated from bacterial cells via centrifugation.
(§2) Clonal phage were harvested as crude supematants and screened via standard ELISAs. […] Prior to the addition of clonal phage, wells were incubated with blocking buffer and CD28 antigen or blocking buffer alone. Without washing or aspirating, clonal phage supematants were then added to the wells and incubated for a short time. Wells were then washed followed by detection of bound phage using a horse radish conjugated anti-M13 antibody. Clonal phage of interest were then sent for sequence analysis.
The target is the same in test [3]. The test is described as follows: phage binding ELISA; biotinylated anti-CD28 Fab on neutravidin plate, clonal phage supernatant, anti-M13 HRP detection. This is another data set of the same source.
Target sequence in this assay (VH, as listed by the source, chain 1 of 2): as the sequence (VH, as listed by the source, chain 1 of 2) above
Target sequence in this assay (VL, as listed by the source, chain 2 of 2): as the sequence (VL, as listed by the source, chain 2 of 2) above
Test [4] shares this target. Kind of test: phage binding ELISA; captured anti-CD28 Fab pre-incubated with CD28 antigen as competitor, anti-M13 HRP detection.
Target sequence in this assay (VH, as listed by the source, chain 1 of 2): as the sequence (VH, as listed by the source, chain 1 of 2) above
Target sequence in this assay (VL, as listed by the source, chain 2 of 2): as the sequence (VL, as listed by the source, chain 2 of 2) above
For test [5], the target named is T1, Anti-CD28 Fab (SEQ ID NOs: 696, 697).
T1 construct: In the phage ELISA the Fab was biotinylated and captured on neutravidin coated plates
The test is described as follows: phage ELISA; biotinylated anti-CD28 Fab on neutravidin plate, clonal phage supernatant, anti-M13 HRP detection.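 Note: crude supernatants of single phage clones picked after panning were screened for binding.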
T1 sequence (VH, as listed by the source, chain 1 of 2): as the sequence (VH, as listed by the source, chain 1 of 2) above
T1 sequence (VL, as listed by the source, chain 2 of 2): as the sequence (VL, as listed by the source, chain 2 of 2) above

Test [6] shares this target. The test is described as follows: phage ELISA; Fab-coated wells pre-incubated with CD28 antigen as competitor, anti-M13 HRP detection.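 Note: crude clonal phage supernatants screened by ELISA, comparing wells pre-treated with CD28 antigen in blocker against wells given blocker only, bound phage read via HRP-linked anti-M13.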
Target sequence in this assay (VH, as listed by the source, chain 1 of 2): as the sequence (VH, as listed by the source, chain 1 of 2) above
Target sequence in this assay (VL, as listed by the source, chain 2 of 2): as the sequence (VL, as listed by the source, chain 2 of 2) above
Protocol: as §1, §2
Test [7] deals with T2, Anti-CD28 Fab (SEQ ID NOs: 696, 697).
T2 construct: The Fab was biotinylated and captured on neutravidin coated plates in the phage ELISA
The test is described as follows: phage binding ELISA on anti-CD28 Fab plate; competitor: CD28 antigen pre-incubated in the wells.
Protocol: as §1, §2

Test [8] has the same target. Kind of test: phage binding ELISA; biotinylated anti-CD28 Fab on neutravidin plate, bound phage detected with anti-M13 HRP.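 Note: crude supernatants of clonal phage screened, wells pretreated with blocking buffer with or without CD28 antigen before brief phage incubation, washed, then bound phage detected.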
Protocol: as §1, §2

B1: Phage-729 (peptide)
peptide: YCDGHSAEYMQKCL
For B1, the “Anti-CD28 Fab signal (phage binding ELISA)” value in test [1] came to 1.95. The “Anti-CD28 Fab signal in the presence of CD28” value in test [2] worked out at 0.07.

B2: Phage-706 (peptide)
peptide: YCDGHEAQYMSKCL
modifications: cysteine pairing not given here; also: displayed on phage by fusion to pIII, pIII and linker sequence not given here
Turning to B2, the “Anti-CD28 Fab (SEQ ID NOs: 696, 697) signal” value in test [3] was determined as 2.01. Further, the “Anti-CD28 Fab signal in the presence of CD28” value in test [4] was 0.09.

B3: Phage-738 (peptide)
peptide: YCEGHRAEYMEKCL
notes: tested as crude clonal phage supernatant
With B3, the “Anti-CD28 Fab signal (phage binding ELISA)” value in test [5] came out at 1.93. In addition, the “Anti-CD28 Fab signal in the presence of CD28 (phage binding ELISA)” value in test [6] turned out to be 0.06.

B4: Phage-751 (peptide)
peptide: YCEGHLAVYMQKCL
notes: Tested as clonal phage supernatant
Turning to B4, the “Anti-CD28 Fab signal in the presence of CD28” value in test [7] amounted to 0.1. Further, in test [8], the “Anti-CD28 Fab (SEQ ID NOs: 696, 697) signal” value was 1.91.

B5: Phage-742 (peptide)
peptide: YCDGHMPEYMEKCL
notes: as for B3
For B5, the “Anti-CD28 Fab signal (phage binding ELISA)” value in test [5] is 1.93. For the same molecule, the “Anti-CD28 Fab signal in the presence of CD28 (phage binding ELISA)” value in test [6] is 0.09.

B6: Phage-748 (peptide)
peptide: YCDGHLNEYMEKCL
notes: as for B3
B6: the “Anti-CD28 Fab signal (phage binding ELISA)” value in test [5] worked out at 1.91. Also, in test [6], the “Anti-CD28 Fab signal in the presence of CD28 (phage binding ELISA)” value is 0.06.

B7: Phage-704 (peptide)
peptide: YCDGHAPEYMEKCL
modifications: cysteine pairing not given here; also: displayed on phage by fusion to pIII, pIII and linker sequence not given here
As for B7, in test [3], the “Anti-CD28 Fab (SEQ ID NOs: 696, 697) signal” value amounted to 2.01. In test [4], the “Anti-CD28 Fab signal in the presence of CD28” value is 0.09.

B8: Phage-739 (peptide)
peptide: YCDGHSPDYIWKCL
notes: as for B3
Consider B8, for which, in test [5], the “Anti-CD28 Fab signal (phage binding ELISA)” value was found to be 1.93. For the same molecule, in test [6], the “Anti-CD28 Fab signal in the presence of CD28 (phage binding ELISA)” value is 0.1.

B9: Phage-730 (peptide)
peptide: YCDGHLVEYMSKCL
Turning to B9, the “Anti-CD28 Fab signal (phage binding ELISA)” value in test [1] came to 1.95. Besides, the “Anti-CD28 Fab signal in the presence of CD28” value in test [2] worked out at 0.08.

B10: Phage-737 (peptide)
peptide: YCSGHAPEYMAKCL
notes: as for B3
For B10, the “Anti-CD28 Fab signal (phage binding ELISA)” value in test [5] is 1.94. The “Anti-CD28 Fab signal in the presence of CD28 (phage binding ELISA)” value in test [6] was 0.06.

B11: Phage-731 (peptide)
peptide: YCEGHLSQYMEKCL
For the molecule B11, in test [1], the “Anti-CD28 Fab signal (phage binding ELISA)” value came to 1.95. In addition, the “Anti-CD28 Fab signal in the presence of CD28” value in test [2] amounted to 0.08.

B12: Phage-707 (peptide)
peptide: YCDGHSHEYMEKCL
modifications: cysteine pairing not given here; also: displayed on phage by fusion to pIII, pIII and linker sequence not given here
As to B12, in test [3], the “Anti-CD28 Fab (SEQ ID NOs: 696, 697) signal” value was found to be 2.01. Also, the “Anti-CD28 Fab signal in the presence of CD28” value in test [4] is 0.06.

B13: Phage-726 (peptide)
peptide: YCDGHSALYMWKCL
As to B13, in test [1], the “Anti-CD28 Fab signal (phage binding ELISA)” value came to 1.96. In addition, the “Anti-CD28 Fab signal in the presence of CD28” value in test [2] was 0.08.

B14: Phage-728 (peptide)
peptide: YCDGHLIEYMYKCL
Turning to B14, in test [1], the “Anti-CD28 Fab signal (phage binding ELISA)” value was found to be 1.95. In test [2], the “Anti-CD28 Fab signal in the presence of CD28” value came to 0.09.

B15: Phage-727 (peptide)
peptide: YCDGHSSEYMIKCL
Regarding B15, the “Anti-CD28 Fab signal (phage binding ELISA)” value in test [1] was determined as 1.95. Moreover, the “Anti-CD28 Fab signal in the presence of CD28” value in test [2] worked out at 0.06.

B16: Phage-741 (peptide)
peptide: YCMGHQPEYMQKCL
notes: as for B3
With B16, the “Anti-CD28 Fab signal (phage binding ELISA)” value in test [5] turned out to be 1.93. In addition, in test [6], the “Anti-CD28 Fab signal in the presence of CD28 (phage binding ELISA)” value came to 0.08.

B17: Phage-744 (peptide)
peptide: YCDGHSPEYMTKCL
notes: as for B3
In the case of B17, the “Anti-CD28 Fab signal (phage binding ELISA)” value in test [5] came to 1.93. In test [6], the “Anti-CD28 Fab signal in the presence of CD28 (phage binding ELISA)” value came out at 0.07.

B18: Phage-740 (peptide)
peptide: YCMGHAPEYMEKCL
notes: as for B3
As to B18, the “Anti-CD28 Fab signal (phage binding ELISA)” value in test [5] came out at 1.93. Further, in test [6], the “Anti-CD28 Fab signal in the presence of CD28 (phage binding ELISA)” value is 0.07.

B19: Phage-747 (peptide)
peptide: YCAGHSPEFMEKCL
notes: as for B3
In the case of B19, the “Anti-CD28 Fab signal (phage binding ELISA)” value in test [5] is 1.91. The “Anti-CD28 Fab signal in the presence of CD28 (phage binding ELISA)” value in test [6] was found to be 0.06.

B20: Phage-705 (peptide)
peptide: YCDGHMGVYYWKCL
modifications: cysteine pairing not given here; also: displayed on phage by fusion to pIII, pIII and linker sequence not given here
Take B20: the “Anti-CD28 Fab (SEQ ID NOs: 696, 697) signal” value in test [3] amounted to 2.01. For the same molecule, the “Anti-CD28 Fab signal in the presence of CD28” value in test [4] worked out at 0.09.

B21: Phage-743 (peptide)
peptide: YCDGHSAEYLAKCL
notes: as for B3
For the molecule B21, the “Anti-CD28 Fab signal (phage binding ELISA)” value in test [5] turned out to be 1.93. Also, in test [6], the “Anti-CD28 Fab signal in the presence of CD28 (phage binding ELISA)” value worked out at 0.08.

B22: Phage-733 (peptide)
peptide: YCAGHLEIYMNKCL
Take B22: in test [1], the “Anti-CD28 Fab signal (phage binding ELISA)” value was 1.94. Moreover, the “Anti-CD28 Fab signal in the presence of CD28” value in test [2] was found to be 0.07.

B23: Phage-746 (peptide)
peptide: YCAGHMPEYIDKCL
notes: as for B3
Turning to B23, the “Anti-CD28 Fab signal (phage binding ELISA)” value in test [5] came out at 1.92. In addition, the “Anti-CD28 Fab signal in the presence of CD28 (phage binding ELISA)” value in test [6] is 0.06.

B24: Phage-745 (peptide)
peptide: YCEGHSMEYMAKCL
notes: as for B3
Take B24: the “Anti-CD28 Fab signal (phage binding ELISA)” value in test [5] was 1.92. The “Anti-CD28 Fab signal in the presence of CD28 (phage binding ELISA)” value in test [6] came out at 0.07.

B25: Phage-749 (peptide)
peptide: YCDGHLKEYQEKCL
notes: as for B4
On to B25, for which the “Anti-CD28 Fab signal in the presence of CD28” value in test [7] turned out to be 0.09. Further, the “Anti-CD28 Fab (SEQ ID NOs: 696, 697) signal” value in test [8] amounted to 1.91.

B26: Phage-703 (peptide)
peptide: YCEGHSLEYMGKCL
modifications: cysteine pairing not given here; also: displayed on phage by fusion to pIII, pIII and linker sequence not given here
For the molecule B26, in test [3], the “Anti-CD28 Fab (SEQ ID NOs: 696, 697) signal” value was 2.02. The “Anti-CD28 Fab signal in the presence of CD28” value in test [4] came out at 0.09.

B27: Phage-734 (peptide)
peptide: YCEGHLSEYMAKCL
As for B27, in test [1], the “Anti-CD28 Fab signal (phage binding ELISA)” value turned out to be 1.94. Further, in test [2], the “Anti-CD28 Fab signal in the presence of CD28” value came to 0.2.

B28: Phage-725 (peptide)
peptide: YCAGHSVEYMAKCL
Consider B28, for which, in test [1], the “Anti-CD28 Fab signal (phage binding ELISA)” value was 1.96. In addition, the “Anti-CD28 Fab signal in the presence of CD28” value in test [2] was 0.08.

B29: Phage-752 (peptide)
peptide: YCEGHSSEYMEKCL
notes: as for B4
With B29, the “Anti-CD28 Fab signal in the presence of CD28” value in test [7] was 0.06. Further, the “Anti-CD28 Fab (SEQ ID NOs: 696, 697) signal” value in test [8] amounted to 1.91.

B30: Phage-708 (peptide)
peptide: YCQGHLPEYMSKCL
modifications: cysteine pairing not given here; also: displayed on phage by fusion to pIII, pIII and linker sequence not given here
B30: the “Anti-CD28 Fab (SEQ ID NOs: 696, 697) signal” value in test [3] was 2.01. Besides, the “Anti-CD28 Fab signal in the presence of CD28” value in test [4] was 0.06.

B31: Phage-724 (peptide)
peptide: YCDGHLPEYLGKCL
Take B31: the “Anti-CD28 Fab signal (phage binding ELISA)” value in test [1] worked out at 1.96. For the same molecule, the “Anti-CD28 Fab signal in the presence of CD28” value in test [2] came out at 0.08.

B32: Phage-723 (peptide)
peptide: YCDGHLEQYRAKCL
For B32, the “Anti-CD28 Fab signal (phage binding ELISA)” value in test [1] came to 1.96. Moreover, in test [2], the “Anti-CD28 Fab signal in the presence of CD28” value came out at 0.08.

B33: Phage-736 (peptide)
peptide: YCDGHASEYMWKCL
notes: as for B3
For the molecule B33, in test [5], the “Anti-CD28 Fab signal (phage binding ELISA)” value is 1.94. For the same molecule, the “Anti-CD28 Fab signal in the presence of CD28 (phage binding ELISA)” value in test [6] stood at 0.06.

B34: Phage-735 (peptide)
peptide: YCEGHLPIYLSKCL
On to B34, for which the “Anti-CD28 Fab signal (phage binding ELISA)” value in test [1] amounted to 1.94. For the same molecule, the “Anti-CD28 Fab signal in the presence of CD28” value in test [2] is 0.08.

B35: Phage-750 (peptide)
peptide: YCEGHLAQYMWKCL
notes: as for B4
With B35, in test [7], the “Anti-CD28 Fab signal in the presence of CD28” value worked out at 0.12. The “Anti-CD28 Fab (SEQ ID NOs: 696, 697) signal” value in test [8] came to 1.91.

B36: Phage-732 (peptide)
peptide: YCDGHSPEHIRKCL
Consider B36, for which, in test [1], the “Anti-CD28 Fab signal (phage binding ELISA)” value was determined as 1.94. Besides, the “Anti-CD28 Fab signal in the presence of CD28” value in test [2] is 0.11.
